Values of other authors in paper PMC3416887.
pKd: −log10 of the molar value.

Biological target: FibP (Homo sapiens) (UniProt P02679)

pKd: 6.20
Substance: thrombin (from UniProt P00734)
